Experiments:
RelF;RelG = molecular target: T1, RelF;RelG (Mycobacterium tuberculosis …, UniProt O33347;O33348 1-93;1-87, |); experiment: EMSA; details: protein: recombinant;recombinant; tags: His or GST;His or GST; label: 5'-32P; blunt
T1 sequence 1: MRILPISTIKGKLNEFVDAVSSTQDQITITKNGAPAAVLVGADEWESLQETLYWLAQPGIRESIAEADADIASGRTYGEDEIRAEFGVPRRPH
T1 sequence 2: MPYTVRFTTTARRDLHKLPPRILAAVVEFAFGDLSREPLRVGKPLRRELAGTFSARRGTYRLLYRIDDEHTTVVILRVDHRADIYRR

RelB;RelE = molecular target: T2, RelB;RelE (Mycobacterium tuberculosis …, UniProt O50462;O50461 1-89;1-97, |); experiment: EMSA; 1.8-15 uM titration; details: protein: recombinant;recombinant; tags: His (modified pET28a);His or GST; chain copies: 2;2; label: 5'-32P; blunt
T2 sequence 1: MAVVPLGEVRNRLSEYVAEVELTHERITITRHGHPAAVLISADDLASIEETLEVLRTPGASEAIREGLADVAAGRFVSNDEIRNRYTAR
T2 sequence 2: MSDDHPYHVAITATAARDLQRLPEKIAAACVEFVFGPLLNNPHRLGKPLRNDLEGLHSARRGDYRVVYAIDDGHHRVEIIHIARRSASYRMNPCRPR

RelJ = molecular target: T3, RelJ (Mycobacterium tuberculosis H37Rv, UniProt P9WF25 1-91); experiment: EMSA; 7.5 uM RelJ alone; details: protein: recombinant; tags: His or GST; chain copies: 2; label: 5'-32P; blunt
T3 sequence: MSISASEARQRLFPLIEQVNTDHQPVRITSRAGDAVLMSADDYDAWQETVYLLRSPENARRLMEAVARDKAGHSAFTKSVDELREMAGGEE

RelJ;RelK = RelJ;RelK (Mycobacterium tuberculosis …, UniProt P9WF25;P9WF09 1-91;1-85, |); experiment: EMSA; 1.8-15 uM titration; details: protein: recombinant;recombinant; tags: His or GST;His or GST; label: 5'-32P; blunt
Chain of RelJ;RelK (P9WF09 whole entry, one chain of several): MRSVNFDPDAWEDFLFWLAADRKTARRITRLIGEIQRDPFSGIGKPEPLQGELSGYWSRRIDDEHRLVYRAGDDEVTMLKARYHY

B1: 2865p7 (dsDNA)
DNA 1: AAACCTGAGACGCCGCGCACAAAGTGCGAAACC
DNA 2: GGTTTCGCACTTTGTGCGCGGCGTCTCAGGTTT
binding result (RelF;RelG): binds

B2: 1247p7 (dsDNA)
DNA 1: GGCGTTCGGCTCGGTAAGCCGATGCTCGGCG
DNA 2: CGCCGAGCATCGGCTTACCGAGCCGAACGCC
binding result (RelB;RelE): binds

B3: 3357p7 (dsDNA)
DNA 1: CCACCGTACGGACAACTTGTACCATTGTGGTACAGATTATCCGTACATCTT
DNA 2: AAGATGTACGGATAATCTGTACCACAATGGTACAAGTTGTCCGTACGGTGG
binding result (RelJ): binds
binding result (RelJ;RelK): binds

Source: PMC2871789, “Characterization of the Interaction and Cross-Regulation of Three Mycobacterium tuberculosis RelBE Modules”
